PMC10213043, “Different viral effectors suppress hormone-mediated antiviral immunity of rice coordinated by OsNPR1” (Nature Communications, 2023)

Biological target: the molecule itself
Assay: pull-down; purified proteins, 5 µg GST-OsNPR1 with 5 µg MBP-HIS-OsNPR1 or 5 µg MBP-HIS-OsCUL3a, plus 1 or 10 µg MBP-HIS-P2 (or 10 µg MBP-HIS); held on glutathione sepharose beads, 4 °C, 2 h, washed with 1x PBS

B1: GST-OsNPR1 (natural protein)
chain: MEPPTSHVTNAFSDSDSASVEEGGADADADVEALRRLSDNLAAAFRSPEDFAFLADARIAVPGGGGGGGDLLVHRCVLSARSPFLRGVFARRAAAAAGGGGEDGGERLELRELLGGGGEEVEVGYEALRLVLDYLYSGRVGDLPKAACLCVDEDCAHVGCHPAVAFMAQVLFAASTFQVAELTNLFQRRLLDVLDKVEVDNLLLILSVANLCNKSCMKLLERCLDMVVRSNLDMITLEKSLPPDVIKQIIDARLSLGLISPENKGFPNKHVRRIHRALDSDDVELVRMLLTEGQTNLDDAFALHYAVEHCDSKITTELLDLALADVNHRNPRGYTVLHIAARRREPKIIVSLLTKGARPADVTFDGRKAVQISKRLTKQGDYFGVTEEGKPSPKDRLCIEILEQAERRDPQLGEASVSLAMAGESLRGRLLYLENRVALARIMFPMEARVAMDIAQVDGTLEFNLGSGANPPPERQRTTVDLNESPFIMKEEHLARMTALSKTVELGKRFFPRCSNVLDKIMDDETDPVSLGRDTSAEKRKRFHDLQDVLQKAFHEDKEENDRSGLSSSSSSTSIGAIRPRR
notes: also called second copy in the self-association pull-down: MBP-HIS-OsNPR1; MBP-OsNPR1; source: E. coli Rosetta (DE3), purified
B1: binds.
